Data reported in patent US20090068224A1, “METHOD TO IDENTIFY POLYPEPTIDE TOLL-LIKE RECEPTOR (TLR) LIGANDS” (VAXINNATE CORPORATION, priority 2005, published 2009).

Experiments:
TLR2 = TLR2 (Homo sapiens, UniProt O60603); experiment: T7 phage biopanning, 4 rounds (negative on parental HEK293, positive on 293.hTLR2 cells); share of 109 sequenced clones
[1] = target: human TLR2 (293.hTLR2 cells) (Homo sapiens, UniProt O60603); experiment: Biopanning of pentameric random peptide phage display library, sequencing of enriched clones; assay type: binding; details: percentage of all clones sequenced (n = 109) having given peptide sequence, after 4 rounds of biopanning, TLRlo parental HEK293, TLRhi 293.hTLR2
Procedure: (§1) Screening of phage display libraries by biopanning: Phage display libraries are screened for peptide TLR ligands according to the following procedure. The phage display library is incubated on an in vitro cultured monolayer of cells that express minimal amounts of the TLR of interest (TLR^lo) in order to reduce non-specific binding, and then transferred to an in vitro suspension culture of cells expressing the relevant TLR (TLR^hi) to capture phage with binding specificity for the target TLR. After several washes with PBS to remove phage remaining unbound to the TLR^hi cells, TLR^hi cell-bound phages are harvested by centrifugation. The TLR^hi cells with bound phage are incubated with E. coli (strain BLT5615) in order to amplify the phage. This process is repeated three or more times to yield a phage population enriched for high affinity binding to the target TLR.
In each round of biopanning, the harvested phage that are bound to TLR^hi cells can be titred prior to amplification, amplified, and then titred again prior to initiation of the next cycle of biopanning. In this way, it is possible to determine the percent (%) of input phage in each cycle that are ultimately harvested from the TLR^hi cells. This calculation provides a round-by-round measure of enrichment within the phage display library for phage that display TLR-binding peptides.
Construction of random peptide libraries (RPL): A pentameric random peptide phage display library of T7SELECT phage was constructed essentially as described in Example 2. A pair of phosphorylated oligonucleotides with the sequence NNBNNBNNBNNBNNB (where N=A/G/C/T, B=G/C/T) flanked at the 5′ and 3′ ends by EcoRI and HindIII sites, respectively, was synthesized. Equimolar amounts of the oligonucleotides were annealed by heating for 5 min at 90° C. with gradual cooling to 25° C. The double stranded DNA was ligated to T7Select 10-3 bacteriophage vector (Novagen) that had been previously digested with EcoRI and HindIII. The ligation reactions were packaged in vitro and titred using the host E. coli strain […] that was grown in M9TB (Novagen), generating 2.5×10^7 clones, representing about 75% coverage of the library. The recombinant phage were subjected to several rounds of amplification to generate a total library of 1.35×10^12 phage, ensuring representation in excess of 5×10^4 fold for each clone in the library.
(§2) Sequencing of phage inserts: Individual phage clones from the enriched pool are isolated via plaque formation in E. coli. The DNA inserts of individual phage are amplified in PCR using the commercially available primers T7SelectUP (5′-GGAGCTGTCGTATTCCAGTC-3′; SEQ ID NO: 37; Novagen, catalog #70005) and T7SelectDOWN (5′-AACCCCTCAAGACCCGTTTA-3′; SEQ ID NO: 38; Novagen, catalog #70006). The PCR product DNA is purified using the QIAquick 96 PCR Purification Kit (Qiagen) and subjected to DNA sequencing using T7SelectUP and T7SelectDOWN primers.
We constructed a pentameric random peptide phage display library in T7 phage. This phage library was then screened by biopanning as described in Example 3. For this screen, the TLR^lo cells were parental HEK293 (TLR2^−) cells, and the TLR^hi cells were HEK293 cells ectopically expressing human TLR2 (293.hTLR2, see Example 1, above). Phage bound to 293.hTLR2 cells were harvested, titred, and amplified prior to initiation of the each cycle of panning. In this way, it was possible to determine the % of input phage in each cycle that was ultimately harvested from the TLR2^hi cells.
After 4 rounds of biopanning, individual phage clones from the enriched pool were isolated via plaque formation in E. coli. […] phage clones were randomly picked for sequencing. Of the 109 individual clones examined the motif DPDSG was predominant (see Tables 6 and 7). […]

[2] = target: human TLR2 and human CD14 (293.hTLR2.hCD14 cells) (Homo sapiens, UniProt O60603); experiment: Biopanning of pooled 10, 15 and 20 amino acid random peptide phage display libraries, sequencing of enriched clones; assay type: binding; details: percentage of all clones sequenced having given peptide sequence; 96 clones picked after 4 rounds of biopanning, TLRlo parental HEK293, TLRhi 293.hTLR2.hCD14
Procedure: as §1
Libraries of phage displaying random peptides 10, 15 and 20 amino acids in length were constructed essentially as described for the pentameric random peptide library, except that the phosphorylated oligonucleotides used were 30, 45, and 60 nucleotides in length, respectively.
as §2
We also constructed 10, 15, and 20 amino acid random peptide phage display libraries in T7SELECT phage. These phage display libraries were pooled in equal proportion and then screened by biopanning as described in Example 3. […] Of the 96 clones analyzed three peptide sequences were particularly abundant (see Table 8). […]

[3] = peptides with no homology to known proteins
[4] = peptides with identity to known microbial proteins

TLR2, sequence (O60603 21-784 limits assumed): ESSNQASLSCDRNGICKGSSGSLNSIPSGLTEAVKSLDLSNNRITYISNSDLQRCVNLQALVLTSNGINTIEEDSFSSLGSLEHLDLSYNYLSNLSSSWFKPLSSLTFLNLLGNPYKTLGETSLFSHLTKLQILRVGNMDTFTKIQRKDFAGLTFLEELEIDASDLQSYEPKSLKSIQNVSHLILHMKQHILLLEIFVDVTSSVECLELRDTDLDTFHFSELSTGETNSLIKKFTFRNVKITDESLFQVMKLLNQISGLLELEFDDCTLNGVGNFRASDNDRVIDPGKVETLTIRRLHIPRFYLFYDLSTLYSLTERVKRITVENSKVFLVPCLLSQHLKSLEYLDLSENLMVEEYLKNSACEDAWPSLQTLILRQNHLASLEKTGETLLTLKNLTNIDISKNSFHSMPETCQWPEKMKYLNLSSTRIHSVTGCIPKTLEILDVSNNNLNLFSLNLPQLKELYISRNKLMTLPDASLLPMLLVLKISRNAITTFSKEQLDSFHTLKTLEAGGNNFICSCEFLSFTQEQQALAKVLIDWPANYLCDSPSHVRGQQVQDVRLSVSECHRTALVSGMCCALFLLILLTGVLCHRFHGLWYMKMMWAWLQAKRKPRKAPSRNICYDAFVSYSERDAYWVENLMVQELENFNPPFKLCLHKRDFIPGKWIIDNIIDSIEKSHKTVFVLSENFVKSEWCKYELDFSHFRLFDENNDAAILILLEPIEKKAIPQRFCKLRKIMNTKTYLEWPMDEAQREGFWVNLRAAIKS
human TLR2 (293.hTLR2 cells), sequence (O60603 21-784): as the sequence (O60603 21-784 limits assumed) above
human TLR2 and human CD14 (293.hTLR2.hCD14 cells), sequence (O60603 21-784): as the sequence (O60603 21-784 limits assumed) above

ACGVY (peptide)
% ABUNDANCE (TLR2): 0.92%

ACGVY [peptide TLR2 ligand from phage display]
% Abundance [1, 3]: 0.92%

ADTHQ (peptide)
% ABUNDANCE (TLR2): 0.9%

ADTHQ [peptide TLR2 ligand from phage display]
% Abundance [1, 4]: 0.9%

AGCFS (peptide)
% ABUNDANCE (TLR2): 0.92%

AGCFS [peptide TLR2 ligand from phage display]
% Abundance [1, 3]: 0.92%

AVRLS (peptide)
% ABUNDANCE (TLR2): 0.92%

AVRLS [peptide TLR2 ligand from phage display]
% Abundance [1, 3]: 0.92%

AWAGT (peptide)
% ABUNDANCE (TLR2): 0.9%

AWAGT [peptide TLR2 ligand from phage display]
% Abundance [1, 4]: 0.9%

CGPKL (peptide)
% ABUNDANCE (TLR2): 0.92%

CGPKL [peptide TLR2 ligand from phage display]
% Abundance [1, 3]: 0.92%

CVWLQ (peptide)
% ABUNDANCE (TLR2): 0.9%

CVWLQ [peptide TLR2 ligand from phage display]
% Abundance [1, 4]: 0.9%

EVCAP (peptide)
% ABUNDANCE (TLR2): 0.92%

EVCAP [peptide TLR2 ligand from phage display]
% Abundance [1, 3]: 0.92%

FCGLG (peptide)
% ABUNDANCE (TLR2): 0.92%

FCGLG [peptide TLR2 ligand from phage display]
% Abundance [1, 3]: 0.92%

GGKLS (peptide)
% ABUNDANCE (TLR2): 0.92%

GGKLS [peptide TLR2 ligand from phage display]
% Abundance [1, 3]: 0.92%

GPLLH (peptide)
% ABUNDANCE (TLR2): 0.9%

GPLLH [peptide TLR2 ligand from phage display]
% Abundance [1, 4]: 0.9%

GRRGLCRGCRTRGRIKQLQSAHK [peptide TLR2 ligand from phage display]
% Abundance [2]: 16.1%

HLLPG (peptide)
% ABUNDANCE (TLR2): 0.9%

HLLPG [peptide TLR2 ligand from phage display]
% Abundance [1, 4]: 0.9%

IGRFR (peptide)
% ABUNDANCE (TLR2): 2.7%

IGRFR [peptide TLR2 ligand from phage display]
% Abundance [1, 4]: 2.7%

IHVVP (peptide)
% ABUNDANCE (TLR2): 0.9%

IHVVP [peptide TLR2 ligand from phage display]
% Abundance [1, 4]: 0.9%

IMRHP (peptide)
% ABUNDANCE (TLR2): 0.92%

IMRHP [peptide TLR2 ligand from phage display]
% Abundance [1, 3]: 0.92%

IMWFP (peptide)
% ABUNDANCE (TLR2): 0.9%

IMWFP [peptide TLR2 ligand from phage display]
% Abundance [1, 4]: 0.9%

IYKLA (peptide)
% ABUNDANCE (TLR2): 0.9%

IYKLA [peptide TLR2 ligand from phage display]
% Abundance [1, 4]: 0.9%

KCQSF (peptide)
% ABUNDANCE (TLR2): 0.92%

KCQSF [peptide TLR2 ligand from phage display]
% Abundance [1, 3]: 0.92%

KGGVGPVRRSSRLRRTTQPG [peptide TLR2 ligand from phage display]
% Abundance [2]: 33.3%

KGWF (peptide)
% ABUNDANCE (TLR2): 0.9%

KGWF [peptide TLR2 ligand from phage display]
% Abundance [1, 4]: 0.9%

KYMPH (peptide)
% ABUNDANCE (TLR2): 0.9%

KYMPH [peptide TLR2 ligand from phage display]
% Abundance [1, 4]: 0.9%

LRQGR (peptide)
% ABUNDANCE (TLR2): 0.9%

LRQGR [peptide TLR2 ligand from phage display]
% Abundance [1, 4]: 0.9%

MFGVP (peptide)
% ABUNDANCE (TLR2): 0.9%

MFGVP [peptide TLR2 ligand from phage display]
% Abundance [1, 4]: 0.9%

MGTLP (peptide)
% ABUNDANCE (TLR2): 1.8%

MGTLP [peptide TLR2 ligand from phage display]
% Abundance [1, 4]: 1.8%

MISS (peptide)
% ABUNDANCE (TLR2): 0.92%

MISS [peptide TLR2 ligand from phage display]
% Abundance [1, 3]: 0.92%

MRRIL (peptide)
% ABUNDANCE (TLR2): 0.92%

MRRIL [peptide TLR2 ligand from phage display]
% Abundance [1, 3]: 0.92%

NPPTT (peptide)
% ABUNDANCE (TLR2): 0.92%

NPPTT [peptide TLR2 ligand from phage display]
% Abundance [1, 3]: 0.92%

NRFGL (peptide)
% ABUNDANCE (TLR2): 0.92%

NRFGL [peptide TLR2 ligand from phage display]
% Abundance [1, 3]: 0.92%

NRTVF (peptide)
% ABUNDANCE (TLR2): 0.92%

NRTVF [peptide TLR2 ligand from phage display]
% Abundance [1, 3]: 0.92%

NYRRW (peptide)
% ABUNDANCE (TLR2): 0.9%

NYRRW [peptide TLR2 ligand from phage display]
% Abundance [1, 4]: 0.9%

PESGV (peptide)
% ABUNDANCE (TLR2): 0.92%

PESGV [peptide TLR2 ligand from phage display]
% Abundance [1, 3]: 0.92%

RGGF (peptide)
% ABUNDANCE (TLR2): 0.92%

RGGF [peptide TLR2 ligand from phage display]
% Abundance [1, 3]: 0.92%

RGGSK (peptide)
% ABUNDANCE (TLR2): 3.67%

RGGSK [peptide TLR2 ligand from phage display]
% Abundance [1, 3]: 3.67%

RVVAP (peptide)
% ABUNDANCE (TLR2): 0.9%

RVVAP [peptide TLR2 ligand from phage display]
% Abundance [1, 4]: 0.9%

RWGYHLRDRKYKGVRSHKGVPR [peptide TLR2 ligand from phage display]
% Abundance [2]: 19.4%

SGGLF (peptide)
% ABUNDANCE (TLR2): 0.92%

SGGLF [peptide TLR2 ligand from phage display]
% Abundance [1, 3]: 0.92%

SHIAL (peptide)
% ABUNDANCE (TLR2): 0.9%

SHIAL [peptide TLR2 ligand from phage display]
% Abundance [1, 4]: 0.9%

SRHGR (peptide)
% ABUNDANCE (TLR2): 0.92%

SRHGR [peptide TLR2 ligand from phage display]
% Abundance [1, 3]: 0.92%

THKPK (peptide)
% ABUNDANCE (TLR2): 0.9%

THKPK [peptide TLR2 ligand from phage display]
% Abundance [1, 4]: 0.9%

VGKND (peptide)
% ABUNDANCE (TLR2): 0.9%

VGKND [peptide TLR2 ligand from phage display]
% Abundance [1, 4]: 0.9%

VSEGV (peptide)
% ABUNDANCE (TLR2): 3.67%

VSEGV [peptide TLR2 ligand from phage display]
% Abundance [1, 3]: 3.67%
